Patent US20200384072A1, “THERAPY OF IONIZING RADIATION-INDUCED DISORDERS” (SCK-CEN, priority 2019, published 2020)

Legend:
Cx43 hemichannels = target: T1, Cx43 hemichannels (Homo sapiens, UniProt P17302); assay: Extracellular ATP release after irradiation, TIME cells; type: cell-based
T1 construct: endogenous in cells; host or cells: TICAE and TIME cells (human endothelial cell lines)
Procedure: Hemichannels are an ATP release pathway and we therefore determined extracellular ATP after irradiation. To that purpose, TICAE and TIME cells were seeded in a 96-well plate at a density of 1×10^5 cells/well and 0.3×10^5 cells/well, respectively, in six to eight biological replicates. Three days later, cells reached 100% confluence. At 30 minutes before irradiation, cells were refreshed with 100 μl medium alone or with medium supplemented with 100 μM TAT-Gap19 (Genosphere Biotechnologies, Paris, France) to block the Cx43 hemichannels. For fractionated irradiation, cells were refreshed with 150 μl medium/well. At different time points after irradiation (1, 6 and 72 h), 1:5 ATP assay mix dissolved in ATP mix dilution buffer (Sigma-Aldrich Co. LCC, Diegem, Belgium) was added to each well. Extracellular ATP release was assessed by measuring the luminescence signal received after oxidation of luciferin and ATP to oxyluciferin and AMP using the CLARIOstar® microplate reader (BMG Labtech, Temse, Belgium). Experiments were corrected for baseline ATP signal in medium in the absence or presence of TAT-Gap19.

TIME cells = assay: DNA damage, gamma H2AX and TP53BP1 foci, TIME cells; type: cell-based, human; settings: 100 μM TAT-Gap19, 0.1 and 5 Gy, 1 h p.i.
Procedure: To detect DNA double strand breaks after IR, TICAE and TIME cells were seeded in Nunc™ Lab-Tek™ Chamber Slide (Thermo Fisher Scientific, Asse, Belgium) in 8 replicates, at seeding density of 50 000 cells/well. Two days later, cells reached 100% confluence. At 30 min before IR, a fresh medium was added to the cells with or without 100 μM TAT-Gap19. At 1 h post irradiation, cells were fixed with 2% PFA (Sigma-Aldrich Co. LCC, Diegem, Belgium) and permeabilized with 0.25% Triton X-100 (Sigma-Aldrich Co. LCC, Diegem, Belgium) in PBS. Cells were blocked for 1 h in 1% normal goat serum (Thermo Fisher Scientific, Asse, Belgium) in Tris-NaCl (Perkin Elmer, Brussels, Belgium). Thereafter, staining with 1/300 primary anti-gamma H2AX antibody (Merck-Millipore #05-636) and 1/1000 anti-TP53BP1 antibody (Novus Biologicals #NB100-304) was performed for 1 h at 37° C. After washing 3 times with PBS, secondary Alexa Fluor 488 and 568 antibodies (Life Technologies, Merelbeke, Belgium) were applied for 1 h at 37° C. Finally, the slides were mounted using ProLong Diamond Antifade Mountant with DAPI (Life Technologies, Merelbeke, Belgium), and cells were visualized with an Eclipse Ti automated inverted wide-field epifluorescence microscope (Nikon, Brussels, Belgium) equipped with a 20×Plan Fluor objective (NA 0.6) and an Andor Ixon EMCCD camera, controlled by the MS Elements software. […]

[1] = test system: primary brain microvascular endothelial cells (pBMECs); assay: γ-H2AX counts after local 3×3 mm X-ray irradiation (irradiated and bystander zones), pBMECs; type: cell-based, mouse; settings: 1 Gy, 3 h post-irradiation
Procedure: Cortices, from 10-12 week old mice, were isolated by removing cerebellum, striatum, optic nerves, brain white matter, outer vessels and meninges. After homogenization with a Dounce homogenizer in WBB (Washing Buffer B: HMS, 10 mM Hepes, 0.35 g/L NaHCO3, 0.1% BSA), the homogenate was mixed with 30% dextran in WBB and centrifuged at 3000×g for 25 min at 4° C. The pellet containing the vascular component was then resuspended in WBB and filtered through a 60 μm NY60 Nylon Net Filter (Millipore, Darmstadt, Germany). Following centrifugation at 1000×g for 7 min at room temperature, the pellet was digested in collagenase/dispase supplement with DNase I (Roche Diagnostics, Vilvoorde, Belgium) and TLCK (Tosyl, Lysin chloromethyl ketone, sigma-aldrich) for 33 min at 37° C. in a shaking water bath. The digested capillary suspension was then seeded after multiple washing steps on wells coated with matrigel or glass coated with Corning Cell-Tak (VWR, Leuven, Belgium). For the isolation of intact capillaries the protocol was aborted just before the digestion step.
A defined area of the cell culture dishes were exposed to X-rays (1Gy or 20 Gy) by using a small animal radiation research platform (SARRP, Xstrahl, 220 kV, 13 mA), making use of a 3×3 mm collimator. Whole dish irradiation was done using a 10×10 cm broad-beam collimator, while localized Irradiation was performed with a 3×3 mm collimator. A Gafchromic RTQA2 film, with a sensitivity of 0.02 Gy, was placed underneath the cell dishes in order to delineate the irradiated zone.
Cells were fixed for 25 min with 4% formaldehyde (VWR) and blocked for 30 min with blocking buffer (5% normal goat serum, 1% bovine serum albumin (BSA), 0.2% Triton X-100 in PBS D+). Overnight incubation with primary antibody (1/500 anti-γ-H2AX in dilution buffer, 1/10 blocking buffer in PBS D+) was followed by a 1 h incubation with 1/400 XX-biotin-goat-anti-mouse antibody in dilution buffer, followed by a 1 h incubation with 1/400 streptavidin-alexa488 in PBS D+. Nuclei were stained with 1 μg/mL DAPI in PBS D+ for 10 min and cells were kept in PBS D+ supplemented with NaN3 at 4° C. All steps except the overnight incubation which was carried out at 4° C., were carried out at room temperature and cell cultures were rinsed thoroughly with PBS D+ between all incubation steps. Imaging was performed with an automated BD Pathway 435 imaging system (10× objective, 10×10 montage resulting in an overall image size of 8.5×6.5 mm). We then quantified the number of γ-H2AX-foci positive nuclei in the directly irradiated and bystander areas and expressed the count as a percentage relative to the number of nuclei and subtracted the percentage of background γ-H2AX signal in non-irradiated paired control cultures for each experiment. For counting γ-H2AX foci, images were thresholded to remove background pixel noise below the foci level. Where applicable, results were normalized against vehicle (bar charts with a 100% vehicle bar without statistical variability or a horizontal line).

T1 sequence (P17302 whole entry): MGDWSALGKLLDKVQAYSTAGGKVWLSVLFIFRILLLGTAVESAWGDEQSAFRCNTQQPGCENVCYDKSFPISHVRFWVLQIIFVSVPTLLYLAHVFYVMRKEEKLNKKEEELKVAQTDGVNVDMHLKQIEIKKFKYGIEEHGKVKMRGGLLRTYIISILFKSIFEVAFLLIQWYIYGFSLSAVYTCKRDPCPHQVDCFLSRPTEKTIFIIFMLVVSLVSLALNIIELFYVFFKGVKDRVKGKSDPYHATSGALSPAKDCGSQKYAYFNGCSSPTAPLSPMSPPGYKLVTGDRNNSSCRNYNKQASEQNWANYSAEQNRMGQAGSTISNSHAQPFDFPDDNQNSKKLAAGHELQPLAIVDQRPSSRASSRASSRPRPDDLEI

## TAT-Gap19: connexin mimetic peptide, amino-acids 128-136 of the CL of Cx43 (SEQ ID NO: 2), Gap19 linked to TAT sequence; Cx43 hemichannel inhibitor (YGRKKRRQRRRKQIEIKKFK)
Cx43 hemichannels; 100 μM TAT-Gap19, fractionated irradiation 0.1 and 5 Gy, 72 h p.i.
  radiation-induced ATP release: significantly inhibited the 5 Gy responses only
Cx43 hemichannels; 100 μM TAT-Gap19, single 0.1 Gy, 1 h p.i.
  radiation-induced ATP release: no inhibition was observed
Cx43 hemichannels; 100 μM TAT-Gap19, single 0.1 and 5 Gy, 1, 6, 72 h p.i., most cases
  radiation-induced ATP release: significantly inhibited the radiation-induced ATP release
TIME cells
  gamma H2AX, TP53BP1 and colocalized foci (radiation-induced DNA damage): not affected
[1]
  γ-H2AX counts in the bystander zone (normalized to vehicle): only had effect in the bystander zone
  γ-H2AX counts in the irradiated area (normalized to vehicle): only had effect in the bystander zone
